Laboratory results published in publication PMC7031854.

What was measured:
[1] = target: GST-tagged human α-synuclein (full length, wild type) (human) (UniProt P37840); test: pull-down; 50-100 μg GST-tagged protein as bait, 1-5 mg lamprey CNS (brain and spinal cord) extract in HKET buffer; bound Hsc70 detected by Western blot, band intensity in AU
[2] = target: GST-tagged human α-synuclein NTD (a.a. 1-102) (human) (UniProt P37840); test: as above
[3] = target: GST-tagged lamprey γ-synuclein NTD (lamprey); test: pull-down; 50-100 μg GST-tagged protein as bait, 1-5 mg rat brain extract in HKET buffer (25 mM HEPES K+, 150 mM KCl, 1 mM EDTA, 1% Triton X-100, pH 7.4); bound proteins detected by Western blot, band intensity in AU
[4] = target: GST-tagged lamprey γ-synuclein NTD (lamprey); test: pull-down; direct binding: 50-100 μg GST-tagged protein as bait, 100 μg purified recombinant bovine Hsc70 or truncation, without nucleotides; Western blot, band intensity in AU

endogenous Hsc70 from lamprey brain and spinal cord extracts (natural protein)
band intensity (AU) [1]: 106 AU
band intensity (AU) [2]: 154 AU

Hsc70 from rat brain extracts (from UniProt P63018 1-646) (natural protein)
band intensity (AU) [3]: 153 AU

His-tagged recombinant bovine Hsc70 (from UniProt P19120 1-650) (natural protein)
band intensity (AU) [4]: 62.8 AU
